{"source": "paper PMC8326586", "data": [{"tested_on": "T1, AbTetR (TetR class G) (Acinetobacter baumannii AYE), ORF:695ec09f", "T1 sequence": "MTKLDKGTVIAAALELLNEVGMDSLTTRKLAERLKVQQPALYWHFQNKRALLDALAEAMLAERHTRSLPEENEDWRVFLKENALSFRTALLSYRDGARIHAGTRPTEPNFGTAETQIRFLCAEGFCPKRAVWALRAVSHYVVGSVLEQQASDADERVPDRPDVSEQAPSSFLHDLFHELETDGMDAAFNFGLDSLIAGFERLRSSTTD", "assay": "EMSA", "values": [{"sequence": "ATCAACGATAAGGAGATGGACATATAACTTATCGGTGATAAATTGTCAAGCACTGGCGAAGGAACGTGA (double strand) [70 bp tetR-tetA(G) fragment]", "binding": "binds"}, {"sequence": "CGAATCAAGCAGGAACCATCCAAGATTGGCATAAAAGGTACATTCAACCTTTTCACTGCATCCCATTGGTGCACGTACTCGGTCTTGCAACTCGGA (double strand) [96 bp non-binding sequence]", "binding": "no binding"}, {"sequence": "CTGAAACTCCAGCGCCGCTCAATGGAGCGACTTTATCAACGATAAGGAGATGGACATATAACTTA (double strand) [65 bp tetR-tetA(G) fragment]", "binding": "binds"}, {"sequence": "CTGAAACTCCAGCGCCGCTCAATGGAGCGACTTTATCAACGATAAGGAGATGGACATATAACTTATCGGTGATAAATTGTCAAGCACTGGCGAAGGAACGTGA (double strand) [103 bp tetR-tetA(G) fragment]", "binding": "binds"}, {"sequence": "CTGAAACTCCAGCGCCGCTCAATGGAGCGACTTTATCAACGATAAGGAGATGGACATATAACTTATCGGTGATAAATTGTCAAGCACTGGCGAAGGAACGTGAATGACCAAACTGGACAAGGGCACCGTGATCGCGGCGGCGCTAGAGCTGTTGAACGAGGTTGGCATGGACAGCCTGACGACGCGGAAGCTCGCTGAACGCCTCAAGGTTCAGCA (double strand) [216 bp tetR-tetA(G) fragment]", "binding": "binds"}, {"sequence": "GCACAAGCTCACGCAGAAGCGTCGGAAGGACGGGCATGATGAGGCCGAGACCCATGGCGTCAAGACCCACGATCAGCAGGGCAATGATGGCAGAGCTGCGCACCTGAAACTCCAGCGCCGCTCAATGGAGCGACTTTATCAACGATAAGGAGATGGACATATAACTTATCGGTGATAAATTGTCAAGCACTGGCGAAGGAACGTGA (double strand) [206 bp tetR-tetA(G) fragment]", "binding": "binds"}]}]}
